Assay [1] has as its target T1, human serum albumin (human, UniProt P02768 25-609).
T1 construct: also called HSA; Human Albumin
The experiment in a line: BLI, VHH-Fc on sensor, human albumin in solution, pH 6.0, 30 C, 1:1 model. (Biolayer interferometry detects binding as a change in optical thickness at a sensor tip.)
Description: (§1) To assess binding to albumin, the VHH were cloned onto a human IgG1 Fc and hinge for ease of purification and analysis. […] The VH-Fc constructs were loaded onto AHC sensors prior to exposure to the monomeric targets human, mouse or rhesus albumin in solution for association and then dissociation in buffer solution (Table 5 and FIGS. 5A-C).
(§2) To determine the dissociation constant, the binding reaction and dissociation were performed at the described pH. Data acquisition was performed at 30° C.
(§3) Data (time and response units) was analyzed using the ForteBio Data Analysis Software. The data was fit to a 1:1 binding model to calculate an association (Kon) and dissociation rate (Koff), and KD was calculated using the ratio kd/ka.

Assay [2] addresses T1, human serum albumin. The experiment in a line: BLI, VHH-Fc on sensor, human albumin in solution, pH 6.5, 30 C, 1:1 model.
Description: as §1, §2, §3
The target of assay [3] is T2, Mouse Albumin (mouse, UniProt P07724 25-608).
T2 construct: also called murine albumin
Put plainly: BLI, Octet 384, VHH-Fc on AHC sensor, albumin in solution.
Description: (§4) To assess binding, the VHH were cloned onto a human IgG1 Fc and hinge for ease of purification and analysis. […] The VHH-Fc constructs were loaded onto AHC sensors prior to exposure to the monomeric targets, human, mouse or rhesus albumin in solution to determine association and dissociation. In the case of the pH assessment, the binding reaction and dissociation buffer were at the described pH. Data acquisition was performed at 30° C.
as §1

Assay [4] concerns the target T1, human serum albumin. Described as above.
Description: as §4, §1
Assay [5] concerns the target T3, Rhesus albumin (rhesus monkey, UniProt Q28522 17-600).
T3 construct: also called rhesus monkey albumin
The assay is described as above.
Description: as §4, §1

Assay [6] has as its target T1, human serum albumin. Put plainly: BLI, VHH-Fc on sensor, human albumin in solution, pH 5.5, 30 C, 1:1 model.
Description: as §1, §2, §3
In assay [7] the target is T1, human serum albumin. Put plainly: BLI, VHH-Fc on sensor, human albumin in solution, pH 7.0, 30 C, 1:1 model.
Description: as §1, §2, §3
Assay [8] deals with T1, human serum albumin. Put plainly: BLI, Octet 384, VHH-Fc on AHC sensor, albumin in solution; VHH-Fc on AHC sensor, monomeric human albumin in solution; pH of Table 5 not stated.

Kd and Response data for one molecule are collected here from US20250230210A1 (PARTNER THERAPEUTICS, published 2025).

B1: VHH-Fc construct (anti-albumin VHH cloned onto a human IgG1 Fc and hinge) (Fc fusion)
chain: EVQLLESGGGLVQPGGSLRLSCAASGETLDYYAIGWFRQAPGKEREGVSCIASSGGSTNYADSVKGRFTISRDNSKNTVYLQMNSLKPEDTAVYYCAAAVLECRTVVRGYDYWGQGTQVTVSS
notes: also called VH-Fc constructs; not shown: human IgG1 hinge and Fc
For the molecule B1, the Kd was 3.81 nM in assay [1]; 8.2 nM in assay [2]; 10.4 nM in assay [3]; 66.2 nM in assay [5]; 12.3 nM in assay [6]; 6.63 nM in assay [7]. In assay [8], this molecule registered a Kd of 159 nM. In addition, the Response is 0.507 in assay [3], 0.178 in assay [4] and 0.34 in assay [5].

In general, Kd refers to a measure of binding affinity in units of concentration. Read a high Kd as a looser complex.
